Square brackets hold non-standard residues; d marks the D form. Ends that are not written are not given here. Peptide text beside a SMILES is read from it. * marks the point of attachment. Fmoc = O=C(OCC1c2ccccc2-c2ccccc21)*
Key:
GALR2 = molecular target: T1, GALR2 (Homo sapiens, UniProt O43603); assay: SRE-luc assay in HEK293-Gqi cells expressing GALR2; assay type: cell-based; details: for potency toward GALR2: SRE-luc, HEK293-Gqi cells, compared with spexin
T1 construct: expressed in transfected cells
T1 sequence (O43603 1-387): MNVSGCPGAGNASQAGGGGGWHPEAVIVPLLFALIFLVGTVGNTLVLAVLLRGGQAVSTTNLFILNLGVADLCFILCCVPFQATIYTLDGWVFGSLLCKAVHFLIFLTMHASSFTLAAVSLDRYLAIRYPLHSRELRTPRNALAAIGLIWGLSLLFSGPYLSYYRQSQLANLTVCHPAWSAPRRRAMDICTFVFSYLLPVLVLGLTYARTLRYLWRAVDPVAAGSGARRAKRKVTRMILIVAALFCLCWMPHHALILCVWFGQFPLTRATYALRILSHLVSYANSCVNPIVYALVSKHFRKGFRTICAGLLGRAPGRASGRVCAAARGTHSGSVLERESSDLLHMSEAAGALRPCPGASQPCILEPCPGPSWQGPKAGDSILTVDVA
Source text: (§1) The HEK293-Gqi stable cell line is a cell line in which the C-terminus of Gq is substituted with 3 amino acids of G to convert the signals of G to Gq signaling pathways. […] GALR subtypes 1 and 3 induce inhibitory G-coupled signaling, while GALR subtype 2 triggers stimulatory Gq-coupled signaling. This difference explains the use of the HEK293-Gqi stable cell line in which the C-terminus of Gq is substituted with 3 amino acids of G to convert the signals of Gi to Gq signaling pathways.
(§2) GALR subtypes 1 and 3 induce inhibitory G-coupled signaling, while GALR subtype 2 triggers stimulatory Gq-coupled signaling. This difference explains the use of the HEK293-Gqi stable cell line in which the C-terminus of Gq is substituted with 3 amino acids of G to convert the signals of G to Gq signaling pathways. The activities of the receptors were measured using an SRE-luc assay system designed to express luciferase (luc) by serum responsive element (SRE) promoters. Light caused by a reaction between expressed luciferase and luciferin as a substrate was detected using a luminometer so that receptor subtype-specific or ligand-specific cellular activities were observed. One day after HEK293-Gqi cells were seeded in 48-well plates at a density of 2×10^4 cells/well, plasmid DNA and SRE-luc plasmid DNA, which encode GALR2 and GALR3, respectively, were mixed in a ratio of 1:1 (75 ng+75 ng)/well, and treated with Effectene reagent (2 μl/well). After 3 h, media were replaced with DMEM media supplemented with 10% FBS. After 24 h, the DMEM media were replaced with FBS-free DMEM media. After 16 h, each constructed spexin-based mutant peptide was further incubated at 37° C. for 6 h. After this stage was finished, cells were washed with PBS and lysed by the addition of 100 μl of lysis buffer (0.1% triton X-100, 0.2M Tris, pH 8.0) at room temperature for 20 min. The luciferase activity was determined using a synergy 2 Multi-mode microplate reader (BioTek, Winooski, Vt., USA) with automatic injection of a luciferin solution (0.5 M MgCl2, 0.1 M ATP, 0.05 M D-luciferin, 1 M KH2PO4, pH 7.8).

GALR3 = molecular target: T2, GALR3 (Homo sapiens, UniProt O60755); assay: SRE-luc assay in HEK293-Gqi cells expressing GALR3; assay type: cell-based; details: compared with spexin
T2 construct: expressed in transfected cells
T2 sequence (O60755 1-368): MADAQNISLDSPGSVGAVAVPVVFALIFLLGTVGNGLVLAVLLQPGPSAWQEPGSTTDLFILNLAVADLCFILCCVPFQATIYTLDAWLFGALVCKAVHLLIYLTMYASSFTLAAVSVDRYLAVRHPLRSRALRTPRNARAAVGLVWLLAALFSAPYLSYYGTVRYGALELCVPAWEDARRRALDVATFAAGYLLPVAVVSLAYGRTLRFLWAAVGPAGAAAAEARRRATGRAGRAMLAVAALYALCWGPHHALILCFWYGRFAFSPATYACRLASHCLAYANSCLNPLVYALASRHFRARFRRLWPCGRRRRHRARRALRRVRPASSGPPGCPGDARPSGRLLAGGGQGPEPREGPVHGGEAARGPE
Source text: as §1, §2

[1] = Stability in 100% fetal bovine serum, residual potency via IP3 production in GALR2-expressing cells; details: 37° C.; for stability in serum (100% FBS): 0-72 h, IP3 production in GALR2-expressing cells
Protocol: The stability of the spexin-based mutant peptides was investigated. To this end, first, each modified mutant peptide at an initial concentration 10 μM was allowed to react in 100% fetal bovine serum (FBS) at 37° C. for 0, 3, 6, 12, 24, 48, and 72 h. Thereafter, the potencies of the mutant peptide toward GALR2 were determined via inositol 1,4,5-triphosphate (IP3) production in GALR2-expressing cells. For the IP3 assay, cells were seeded in 12-well plates at a density of 2.5×10^5 cells/well and then the next day, cells were treated with a mixture of 1 μg of GALR2-encoding plasmid DNA and Lipofectamine 2000 (Invitrogen). On day following treatment, cells were incubated in M199 media containing 1% FBS, 1% L-glutamine, 1% antibiotic, and myo-^3H inositol 1 μCi/well for 20 h to radioactively label inositol phosphate. After this stage was finished, cells were allowed to react in buffer A (140 mM NaCl, 20 mM Hepes, 4 mM KCl, 8 mM D-glucose, 1 mM MgCl2, 1 mM CaCl2), 1 mg/ml free fatty acid bovine serum albumin, and 10 mM LiCl at pH 7.2) for 30 min. After the mutant peptide was allowed to react in 100% FBS, cells were treated with the mutant peptide for 40 min at 37° C. Media was removed, and reactions were terminated by addition of 1 ml of 10 mM cold formic acid to each well. The plates were allowed to stand at 4° C. for 30 min. Then, the resulting extracts were transferred to 6-mL plastic tubes containing 500 μl AG1-8X anion exchange columns. The tubes were gently mixed with a vortexer, and the supernatants were removed from the labeled mixture. Two washes with 1 ml of triple-distilled water were performed followed by two additional washes with 60 mM ammonium formate/5 mM sodium tetraborate. The radioactively labeled mixture was eluted from the column with 1 ml of 1 M ammonium formate/0.1 M formic acid (1 mL), and 800 μl from the elution were taken from each tube and transferred into scintillation vials. Then, 2 ml of scintillation cocktail solution (Ultima Gold™, Perkin Elmer, Waltham Mass., USA) was added to each sample. The radioactivity of the mixture solution of the radioactively labeled mixture and the scintillation cocktail solution was measured using a TRI carb 2100TR liquid scintillation analyzer (Packard).

POMC neurons = assay: Signaling, POMC expression and α-MSH in cultured POMC neurons (Western blotting, mRNA); assay type: cell-based; details: Fmoc sextuple mutant 1 μM, insulin 10 nM
Protocol: An increase in the potency of appetite-regulating brain neurons by administration of the GALR2 agonist was determined by immunohistochemistry (IHC). […] POMC neurons known to regulate appetite in the arcuate nucleus were cultured in vitro, treated with the Fmoc sextuple mutant (1 μM) and 10 nM insulin, washed with PBS, and lysed by the addition of 100 μl of lysis buffer (0.1% triton X-100, 0.2M Tris, pH 8.0) at room temperature for 20 min.
Proteins were extracted from cells and analyzed by Western blotting. […] POMC neurons were treated the GALR2 agonist and mRNA was then extracted. Increases in the number of the POMC neurons and the level of α-MSH were observed (FIGS. 11B to 11E).

| Compound | potency toward GALR2 (GALR2) | potency toward GALR3 (GALR3) | further results |
| --- | --- | --- | --- |
| [Leu^4]: spexin-based mutant peptide, leucine at position 4, SEQ ID NO: 20 (NWTLQAMLYLKGAQ; [L4]-SPX) | maintained their potencies toward both receptors without differences from those of spexin | maintained their potencies toward both receptors without differences from those of spexin |  |
| CSCC[C@H](NC(=O)[C@H](C)NC(=O)[C@H](CCC(N)=O)NC(=O)[C@@H]1CCCN1C(=O)[C@@H](NC(=O)[C@H](Cc1c[nH]c2ccccc12)NC(=O)[C@@H](N)CC(N)=O)[C@@H](C)O)C(=O)N[C@@H](CC(C)C)C(=O)N[C@@H](Cc1ccc(O)cc1)C(=O)N[C@@H](CC(C)C)C(=O)N[C@@H](CCCCN)C(=O)NCC(=O)N[C@@H](C)C(=O)N[C@@H](CCC(N)=O)C(N)=O [spexin, reference compound] |  |  | potency toward GALR2 (IP3 production) remaining after reaction in serum ([1]; 100% FBS, initial 10 μM, within 12 h): ≤ 80% |
| CC(C)C[C@H](NC(=O)[C@H](C)NC(=O)[C@H](C)NC(=O)[C@H](CC(N)=O)NC(=O)[C@@H](C)NC(=O)[C@@H](NC(=O)[C@H](Cc1c[nH]c2ccccc12)NC(=O)[C@H](CC(N)=O)NC(=O)OCC1c2ccccc2-c2ccccc21)[C@@H](C)O)C(=O)N[C@@H](Cc1ccc(O)cc1)C(=O)N[C@@H](CC(C)C)C(=O)N[C@@H](Cc1ccccc1)C(=O)NCC(=O)N1CCC[C@H]1C(=O)N[C@H](CCC(N)=O)C(N)=O [Fmoc-se] (Fmoc-NWT[dA]NAALYLFGP[dQ]-NH2) |  |  | specificity for GALR2 (GALR2; GALR2 versus GALR3): specificity for GALR2; AKT phosphorylation (POMC neurons): only the ERK pathway was phosphorylated; ERK phosphorylation (POMC neurons): phosphorylated; stability in serum (100% FBS) [1]: increased stability |
| insulin [reference compound] |  |  | AKT phosphorylation (POMC neurons): phosphorylated; ERK phosphorylation (POMC neurons): phosphorylated |
| [Leu^11]: spexin-based mutant peptide, leucine at position 11, SEQ ID NO: 32 (NWTPQAMLYLLGAQ; [L11]-SPX) |  | decreased potency toward GALR3 |  |
| [Phe^11]: spexin-based mutant peptide, phenylalanine at position 11, SEQ ID NO: 31 (NWTPQAMLYLFGAQ; [F11]-SPX) | maintained its potency toward GALR2 without a substantial difference | decreased potency toward GALR3 |  |
| alanine | maintained its potency toward GALR2 without a substantial difference | decreased potency toward GALR3 |  |
| pQ: spexin with Asn1 replaced with pyroglutamate, SEQ ID NO: 10 | no influence | no influence |  |
| [dN^1]: spexin-based mutant peptide, Asn1 replaced with D-amino acid, SEQ ID NO: 9 | slightly increased the potency | slightly increased the potency |  |
| Fmoc: spexin modified with Fmoc at position 1, SEQ ID NO: 45 | no influence | no influence |  |
| NC(=O)NCCC[C@H](N)C(=O)O [Cit] | no influence | no influence |  |
| [Pro^13]: spexin-based mutant peptide, proline at position 13, SEQ ID NO: 39 (NWTPQAMLYLKGPQ; [P13]-SPX) | maintained its potency toward GALR2 without a substantial difference | decreased potency toward GALR3 |  |
| [Gly′]: spexin-based mutant peptide, Asn1 replaced with glycine, SEQ ID NO: 12 (GWTPQAMLYLKGAQ; [G1]-SPX) | maintained their potencies toward both receptors without differences from those of spexin | maintained their potencies toward both receptors without differences from those of spexin |  |
| NWTPNAALYLFGPQ-NH2 (C-terminus assumed) [Qu] |  |  | stability in serum (100% FBS) [1]: rapidly degraded compared to the wild-type spexin |
| [Gly^8]: spexin-based mutant peptide, leucine at position 8 replaced with glycine, SEQ ID NO: 26 (NWTPQAMGYLKGAQ; [G8]-SPX) | decreased potencies | decreased potencies |  |
| [Asn^5]: spexin-based single mutant peptide, asparagine at position 5, SEQ ID NO: 23 (NWTPNAMLYLKGAQ; [N5]-SPX) | maintained its potency toward GALR2 without a substantial difference | decreased potency toward GALR3 |  |

Source: patent US11248023B2 (NEURACLE SCIENCE CO., LTD., priority 2015, dated 2022)
